Laboratory results taken from the supplement of paper PMC12042874.
± gives the uncertainty stated by the source.

assay: amyloid nucleation score (Sup35N fusion, yeast selection) (log enrichment); library NNK2; higher = more nucleation; inactive = no reads after selection
Summary of the method: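 Yeast lacking psi expressed peptides of 20 random codons fused to Sup35N, received 100 μM copper sulfate for 24 hours, and were then grown for 7 days at 30°C on medium lacking adenine and uracil. Illumina sequencing of input and output plasmid inserts provided the reads. Nucleation scores are DiMSum log enrichments of output over input, centred on the mode of non-aggregating sequences. Any sequence with under 100 input reads was excluded.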

First: DDTLVVLPTRYLTPIWEMH
Second: WQSAEEWMLPYGVNMVVSWA
The amyloid nucleation score of the first is higher: 2.4 ± 0.18 for the first, 0.483 ± 0.46 for the second.

First: GYCYYVPFMVGP
Second: SLLKNPASMCSNSIFCAYVG
The amyloid nucleation score of the first is lower: 0.817 ± 0.8 for the first, 8.708 ± 0.069 for the second.

Going from KTLVKESCCNLNSRSDLWGL to SRVDNVSSAPAISAMGVWCG, the amyloid nucleation score rises from -0.754 ± 0.76 to 1.14 ± 0.38.

Compared with SYNTHQLSRSPF, IAVAKYLTLKDVVLNSWNSY is higher in amyloid nucleation score: -0.131 ± 0.23 for the first, 7.624 ± 0.036 for the second.

ALFRD and NWLCRWWQGWNLT are within error of each other in amyloid nucleation score: 0.066 ± 1 for the first, 0.739 ± 0.28 for the second.

First: MIHYKYGFPNMGIRTYVSFV
Second: VFVSWILFTVSPFIIRYRVN
The amyloid nucleation score of the first is higher: 1.47 ± 0.26 for the first, -1.72 ± 0.75 for the second.

Going from NNLGKEWKNIWGECLRRVAP to VNFNMALDNYFSNFEYRVRN, the amyloid nucleation score falls from 4.48 ± 0.079 to -1.17 ± 0.35.

KCCVENCRWHGRLSSLLFAM and HYRIWVMHMWDCYWTTNFHG are within error of each other in amyloid nucleation score: 0.576 ± 0.34 for the first, -0.393 ± 0.63 for the second.

MDSDNFLQYYSRYFNEVAFC and LITTSMYLWSVHSFVLHMDD are within error of each other in amyloid nucleation score: -0.145 ± 0.79 for the first, 0.545 ± 0.4 for the second.

MANYYLCFYFVLVMRQMKFT and TLLSASYGV are within error of each other in amyloid nucleation score: -1.18 ± 0.62 for the first, -0.742 ± 0.79 for the second.

Compared with IVMCTRRDIA, GLCSIYNWYLVFQVIRTLSW is higher in amyloid nucleation score: -0.577 ± 0.56 for the first, 2.41 ± 0.14 for the second.

Going from MLCRYVVVQGLKVNMGHVFC to SNEGWIKCWILYFVFGAWMI, the amyloid nucleation score falls from 7.567 ± 0.065 to -0.896 ± 0.79.

RVIGVWILIAWQRQV and LMKNEFSRYHTSCVVRGNSL are within error of each other in amyloid nucleation score: 0.822 ± 0.66 for the first, 0.334 ± 0.28 for the second.

Going from PDVTGKELHF to RHGVVLSNVSKSVVSVPGAK, the amyloid nucleation score falls from 3.42 ± 0.071 to -0.409 ± 0.76.

YFELNLNVKRRGGKWYYSLI and DLRHASVVVNRWILCLLGHI are within error of each other in amyloid nucleation score: 1.16 ± 0.27 for the first, 0.106 ± 1 for the second.

SNSRKMCDMGKDDNGYKGTH and DFNSDFAGLLLDTNKYYIHD are within error of each other in amyloid nucleation score: -0.483 ± 1 for the first, -0.088 ± 1.1 for the second.

ESTWSFNSLYIDLIKVWSDV and GNVLFAFTFSVCLKFLAFVF are within error of each other in amyloid nucleation score: -0.889 ± 0.76 for the first, -0.407 ± 0.64 for the second.

Compared with KRSFVIRNLGFCALRLHISV, PISTSFYRMSILEYGSR is lower in amyloid nucleation score: 4.63 ± 0.11 for the first, -0.529 ± 0.64 for the second.

First: RKYNGCSFQHYGLSVRTRSL
Second: AMPSNMLGTSGSYDAC
The amyloid nucleation score of the first is higher: 2.37 ± 0.2 for the first, 0.404 ± 0.66 for the second.

First: FRYFSVP
Second: TGFQLVNWSNIGLWNNLYGR
The amyloid nucleation score of the first is lower: -0.52 ± 0.36 for the first, 5.49 ± 0.065 for the second.

LVFNVLNRFKSARSSRCAGS and IYGQCWVFQNLLRLRVSV are within error of each other in amyloid nucleation score: -1.14 ± 0.61 for the first, 0.119 ± 0.76 for the second.

First: LRFYAFRLDALSLISKSGVQ
Second: DLQSRDYPMADIVHIGIQRH
The amyloid nucleation score of the first is higher: 1.08 ± 0.36 for the first, -0.754 ± 0.34 for the second.

Compared with IGVYSVWNFMMVRSADARFN, TPVSCFTCRQCLVTGLHTLR is lower in amyloid nucleation score: 3.4 ± 0.16 for the first, 0.466 ± 0.26 for the second.

Going from WHFSLTMFRSERVNVLTASD to MFGTMWAWFSVYACEVAWN, the amyloid nucleation score falls from 1.04 ± 0.27 to 0.045 ± 0.62.

Going from MRCAPLMHHLARPASFRI to SLHVTGWFTSDVVFNLWVDV, the amyloid nucleation score falls from 2.08 ± 0.096 to -0.145 ± 0.48.

NYLTQCSRSFNFARVDF and GEHRQGCYFGAIVFAILMFS are within error of each other in amyloid nucleation score: -0.003 ± 0.56 for the first, 0.007 ± 0.55 for the second.

YIIGSNEFSEHETDLNGYQT and LESMFNVL are within error of each other in amyloid nucleation score: -0.938 ± 0.62 for the first, -0.44 ± 0.56 for the second.

Compared with MRTIGGD, CLMWVISNSYNECHLGEVGQ is higher in amyloid nucleation score: 0.348 ± 0.38 for the first, 6.56 ± 0.087 for the second.

Compared with FLQLLDNFALLDLVG, LLYIDLVVHVFQSGSSGRLL is higher in amyloid nucleation score: -0.12 ± 0.79 for the first, 2.79 ± 0.083 for the second.

HFNFCLWDNENYRNGMVWCR and RAEVNA are within error of each other in amyloid nucleation score: 0.042 ± 0.5 for the first, 0.517 ± 0.26 for the second.

Compared with FRMLNRFLWFKVKMGYMHYG, RSKSCSVVVRL is higher in amyloid nucleation score: -0.618 ± 0.42 for the first, 0.813 ± 0.43 for the second.

Going from SFAMSRHLQPGGNEQFRM to LRFYERDILSILLFLMMMFV, the amyloid nucleation score falls from 1.16 ± 0.57 to -1.07 ± 0.63.

Compared with DKWAFVRITRQEPPASIRMD, RVKYLDDCQYMLFRWCRMFT is higher in amyloid nucleation score: -0.939 ± 0.76 for the first, 0.209 ± 0.29 for the second.

Going from VWQSYRFEEYFCICFQLASA to VTVTFIAEHSIWPSVNNCFV, the amyloid nucleation score falls from 7.923 ± 0.031 to 1.71 ± 0.15.

Compared with RYMCGRGHRCF, ECFTMSRK is lower in amyloid nucleation score: 3.04 ± 0.087 for the first, -1.28 ± 0.37 for the second.

Compared with LYVSALTSVRSWGCGNLVLP, SSYPFNDPEMLG is lower in amyloid nucleation score: 3.37 ± 0.08 for the first, -1.09 ± 0.33 for the second.

NGGINNSWWGLIFLNLWPTI and SWCFVNGWWLYESAWEVMDS are within error of each other in amyloid nucleation score: -0.592 ± 0.79 for the first, -0.199 ± 1.1 for the second.

Compared with MVAGDKRDGG, YGFENLVSILKFVQVNSKCG is lower in amyloid nucleation score: 2.39 ± 0.07 for the first, 1.38 ± 0.085 for the second.

Compared with VESLFGYW, CLITLLIMECKYAVDLWGSV is higher in amyloid nucleation score: -0.889 ± 1.1 for the first, 1.04 ± 0.34 for the second.

Compared with WASFW, QSMSNACFVMGTRCITKRAA is higher in amyloid nucleation score: -0.725 ± 0.45 for the first, 4.633 ± 0.044 for the second.

Compared with RLCTVRSP, ANWQWPYCCCCLEGIGRNLF is higher in amyloid nucleation score: 1.55 ± 0.14 for the first, 4.94 ± 0.073 for the second.

CERLNAPHLHQVRIPKRYNM and RRISSKECLYRWGALWYIEI are within error of each other in amyloid nucleation score: 0.306 ± 0.64 for the first, 0.086 ± 0.61 for the second.

Going from DLVVELGESQQPWPLVRSRP to VYTLIIDW, the amyloid nucleation score falls from 0.6 ± 0.64 to -1.44 ± 0.78.

Compared with MCCYVSCQ, KNSIDQVTWTCNRYLKLVLS is lower in amyloid nucleation score: 2.55 ± 0.12 for the first, -0.402 ± 0.39 for the second.

Compared with RGWCFWASPGRR, LWQVRIRPQH is higher in amyloid nucleation score: 0.2 ± 0.26 for the first, 1.37 ± 0.12 for the second.

CDRLELRN and HFSFTPFRTWV are within error of each other in amyloid nucleation score: 0.065 ± 0.43 for the first, -0.527 ± 0.27 for the second.

CSAATSGYYMSQDRLSDTTT and IHVPIQ are within error of each other in amyloid nucleation score: -0.184 ± 1.1 for the first, -0.046 ± 0.54 for the second.

Going from GINFVF to TDLIINMSQNR, the amyloid nucleation score rises from -0.287 ± 0.79 to 2.42 ± 0.1.

Compared with TRGCFAVSSKYMLSYVGLNR, MGRDLLASDSTCVGRVQGKL is higher in amyloid nucleation score: -0.021 ± 0.21 for the first, 0.965 ± 0.57 for the second.

Going from QRADQWVSRKLRPSIARL to SKDRCEVQLGKFTCLFMFDY, the amyloid nucleation score falls from 1.52 ± 0.34 to -1.47 ± 0.55.

DRRPNCIFLDGSYRRDV and ARSLTKSLARYRGRMQMTGP are within error of each other in amyloid nucleation score: 0.034 ± 1.1 for the first, 0.929 ± 0.3 for the second.

FWVALYFSTCFPHDMLSSGP and MTRYDDRFVQNRSSWLDNFD are within error of each other in amyloid nucleation score: -0.734 ± 0.54 for the first, -0.909 ± 0.48 for the second.

PKVVPMISRIAVPL and EPNIGSVP are within error of each other in amyloid nucleation score: -0.788 ± 0.76 for the first, -0.171 ± 0.55 for the second.

Compared with CALSVVTIHFCHTRAPGTPL, PFRSS is lower in amyloid nucleation score: 3.65 ± 0.082 for the first, -0.415 ± 0.36 for the second.

LWIGWSLKPKVDVRLCHWVK and CWVIKGRAKCV are within error of each other in amyloid nucleation score: 0.173 ± 1.1 for the first, -0.26 ± 1 for the second.

In the case of LYTKRSKY, the amyloid nucleation score is reported as -0.161 ± 1.1.

In the case of TPNNYLYTSFVAY, the amyloid nucleation score is reported as “inactive”.
In the case of HDGVNCSYRSDSIYIVENTH, the amyloid nucleation score is reported as “inactive”.
For RMPGWY, the amyloid nucleation score was “inactive”.
In the case of VCDVDTNVVTSNWTSCLFRK, the amyloid nucleation score is reported as “inactive”.
For DNSIRTLEILKSGNIVRGPR, the amyloid nucleation score was “inactive”.
For NATLNNVERFRAFRGTFLDY, the amyloid nucleation score was “inactive”.
With SVFGTLFDYGRRSTTFNGLK the amyloid nucleation score was “inactive”.
For MISCSLSFSLAPQDELRSCK, the amyloid nucleation score was “inactive”.
With DYMTGV the amyloid nucleation score was “inactive”.
In the case of YLRCMRSLYSMNLCDAFNAA, the amyloid nucleation score is reported as “inactive”.
With LSSFDSF the amyloid nucleation score was “inactive”.
In the case of CVHTAVVRILIRAKKAGLIT, the amyloid nucleation score is reported as “inactive”.
In the case of EKICRWHTDRGAFN, the amyloid nucleation score is reported as “inactive”.
For MNWTSVHLDDWSRILIHTYC, the amyloid nucleation score was “inactive”.
In the case of WRVLFQDFRCKINYLGSSSR, the amyloid nucleation score is reported as “inactive”.
